Experimental data reported in the DeepSol protein solubility set.

Assay: soluble on expression in E. coli; label from the status in PepcDB or PDB records

| Sequence | soluble on expression in E. coli |
| --- | --- |
| MSLSELINNREKRVQTLKEIILHLHRGEAPAAVRGRLAALIADVDASEVAAMEQELMAEGMSHQEVQSLCDLHADVLQDVMTRPATPMPLAPGHPVHQLRAENRALGAAAQTARQRVRELAALADEGRFDAERVEALRAFEVLWEVDRHYQRKEHLVFSVLERHGTTGPSKVMWGKDDEVRDLLKASLAALGEEGVSGAELKVVAETVLEPALSALEGMIYKEENILLPMTLGLFTAEDWGEIFRQSPEYGWCLVQPGTGYRPPEPRPVTDAVKLPPAQAVQFPSGTLSFEQLLGLFQALPVDLTFVDRDDRVAFFSEGPDRVFARSRAVIGREVKHCHPPKSVHVVERIVEDFKAGRQSVAEFWIDLHGRFVHIRYFAVRDAAGAYLGTLEVTQDLTRLRALEGERRLLAYDAGPAHDPITREGHHHHHH | soluble |
| MAETEILKCIGCGAPLQSEDLDAPGYVPESSLYKEDVICKRCFRLKNYNEVQDVGLDSEDFLNLLNGLADKKGIVVNVVDVFDFEGSFINAIKRIVGNKQIILVGNKLDLLPKQINKRRVKEWLKKTARKYGLDAEDVILISAEKNEGIEDLLNAINTLRNNDDVYIVGTTNVGKSTLINKLIERSVGEKNVVTTSRFPGTTLDMIDIPLDDTSFMYDTPGVIQEHQMTHYVTEKELKTIMPKKEVKQRVYQLNEGQTLFFGGLARIDYISGGKRPLVCYFSNDLNIHRTKTENANELWRNQLGDVLSPPNNPDHFDLQNVKAVRLETGKEKRDVMISGLGFITIDEGAKIIVRVPKNVDVVLRNSIMLEHHHHHH | not soluble |
| MQVLSEATPMTNGEVYALLRRRRDERNAARHPPFGLQPVLADSHQRAAVATGAAAATAVAPSAPASASAISRAASVMSHNSVGQHSGSKAAPAGAIESAASAAAASTASILASPSSVHLVVLLTEVTMLNYIANHSSLLLESARPTPAGVRVRTCTPRDVYGPTSVYNRVVGTEGRSDAAVGASATAAGSLLDAELVSSCYAKLASHRPGTRGHVRGVEELLEHFEEVGRAQERLYAAGVRRAVQQLWRRRLWVPAEGLYPPPSPPFATTAPSLSNGSALVKAEPVAEEDVDGTAEAVQRLSQDKAARQSGAGETNHDAEGAQPTNASHLVTPLLLEPTPLWGPAARNGGGKGSVDGGAATASMAHSPLSYHVQLQLQQASRSLLSEAEVLQLVVGRPQRALDVYRLLDDVDDRLQYREEAVNAFVEAVTGVFAE | not soluble |
| EQEMVQVFIPAQAVGAIIGKKGQHIKQLSRFASASIKIAPPETPDSKVRMVIITGPPEAQFKAQGRIYGKLKEENFFGPKEEVKLETHIRVPASAAGRVIGKGGKTVNELQNLTAAEVVVPRDQTPDENDQVIVKIIGHFYASQMAQRKIRDILAQVKQQHQK | soluble |
| MAHHHHHHMQSSISQEKLQLMQKNFNLVDLNKDGKIAAEEFKTLLRLLGQTKTEKEMDEMVDKHFEDAPIGEEQQQDAAEAADKGGANEGTPSTAKQLGGQKNTAKTAPNHDRIKNLIAKLNNSKDEDKKKNSPNGQINRTGDVYAKNELINKKKKHINFETFLRIFLETYEEPLSVDELITSFEFFDKEKSGYLDEEKVRFILKNSEERLADEDMKLFLNSLNLRDKDKIDYVMLAKRLKNVA | not soluble |
| DIELTQTPVSLAASLGDRVTISCRASQDINNFLNWYQQKPDGTIKLLIYYTSRLHAGVPSRFSGSGSGTDYSLTISNLEPEDIATYFCQHHIKFPWTFGAGTKLEIK | soluble |
| MAKIGFIGFGSMASLIATKIIETEVATPEEIILYSNSKNEHFNQFYTKYPTAELADNEAEIFTKADHSFVCKLPLAVLPLMKDCAAVLTPDRHVVSIAAGVSTSDIIEITPGLQVSKLIPSLTTAVNVGTTLIAHAETVNQTNTSWLETTFEHFGHVMTIREENMDIASDLTSSSPGIIAAIFEQFVEAALRRSSLSDAEVFQMINFALAGTSKLLVEEDYTFSGLIQRVATKDGTTAEGVELSKAQLPNFFDELLDRTQNKYASSEKEIQAQKRELLSLEHHHHHH | soluble |
| SEEVEAEEPQEFSHRQRLKAAVHYTVGCLCQEVTLNKQVNFSKQTIAAISEVTFRQCENFAKDLEMFARWVEKLAV | soluble |
| MGSDKIHHHHHHMAVRKAMKYSLGPVLWYWPKETLEEFYQQAATSSADVIYLGEAVCSKRRATKVGDWLEMAKSLAGSGKQIVLSTLALVQASSELGELKRYVENGEFLIEASDLGVVNMCAERKLPFVAGHALNCYNAVTLKILLKQGMMRWCMPVELSRDWLVNLLNQCDELGIRNQFEVEVLSYGHLPLAYSARCFTARSEDRPKDECETCCIKYPNGRNVLSQENQQVFVLNGIQTMSGYVYNLGNELASMQGLVDVVRLSPQGTDTFAMLDAFRANENGAAPLPLTANSDCNGYWRRLAGLELQA | not soluble |
| MEIEVVYQHSDFIIINKSEGISVHKDQEEQGLTELVAKQLNVPKVWLVHRLDKVTSGLLILALNAESAAEFSRLFSEHKIHKTYLALSNQKPKKKQGLIIGDMKKAREGAWKLCQTKDNPAITRFESVSCEPNLRLFILKPQTGKTHQLRVAMKSLGSPILGDGLYGKNTEKIDRTYLHATQLEFDYLNNFISVTCLPSQGQFWIKPTVFEQIQVYLTKPFLSKLEHHHHHH | soluble |
| MYIQVLGSAAGGGFPQWNCNCVNCKGYRDGTLKATARTQSSIALSDDGVHWILCNASPDIRAQLQAFAPMQPARALRDTGINAIVLLDSQIDHTTGLLSLREGCPHQVWCTDMVHQDLTTGFPLFNMLSHWNGGLQWNRIELEGSFVIDACPNLKFTPFPLRSAAPPYSPHRFDPHPGDNLGLMVEDTRTGGKLFYAPGLGQVDEKLLAMMHGADCLLVDGTLWEDDEMQRRGVGTRTGREMGHLAQNGPGGMLEVLDGFPRQRKVLIHINNTNPILDENSPERAEVLRRGVEVAFDGMSIELLEHHHHHH | soluble |
| MINVDPPTGNFPASGGNSVHNIVSESDSRLAFKVKSSNNEHYRVRPVYGFIDPKGKTKLDINRIAGPPKVDKLVIQYAEVPADETDPQAPFKAGAQQGEVIVKITAE | not soluble |
| MMEVRINKFLSEAGVASRRKAEKLILEGRVKVNGEVVRSLGVKVNPEVDIVEVDGKPVKPQRKRYIILNKPCCYLTQLGRSPDGRKTIEELIKDIPERVFPVGRLDYNTEGLLILTNDGELANRILHPRYKLPKVYLALVEGKVDQKTLKRMKQGIELEDGFAKPDNIRIVRYEGKNTLLEITFHEGRKHLVKRFLGAFGHKVKRLKRIAIGPIKLGKLSPGKWRELNQGELAQLFKAVGLKYVPRKRRLEHHHHHH | soluble |
| DSDLYAELRCLCIKTTSGIHPKNIQSLEVIGKGTHCNQVEVIATLKDGRKICLDPDAPRIKKIVQKKLAGDESAD | soluble |
| MSKIASEVVATTLNDWYIAIKKQKVDESIKYYSEIKKLFDEMEEDQEVLAYYSLLEERHKMLLHSSRGEPLQKHTYFTEDNQNFITKTNDKLEYNFYLFEAMYEAYNKNYDRAINLYGLAEKKLAEIPDEIEAAEFYSKVSYLYTLVKQSIVAQHYIKNAISIYKRHPDYKCKLATSTMIAAANYADMKRFEEAEQYYLEAIDIAKETKDEFLKAQLFHNLSIVYSDWNKPDKCIESLEKAIGNESWLHSIYYINSLFMMIKELFKIDEKMKAINFYNKAQERLILMENKVYEAKISILYNLYCGELKNNFNNCISNIEFLKQQNELESVDELSYIAAKRFESIGAFEEATSFFNAKIWAE | soluble |
| CISMSKIAVVINPIAGGGRGKKVWKVLKPGLHALFEQTVYRISNRVNDLEAITDGLLAENPDSLLIIGGDGTLNHVLNGLIEKDKLKNPQTKIAFFNAGCGGDFTRQFPQQKMTEFLDRLSHNQFIKCDIGKITLAN | not soluble |
| TVRVRLAPSPTGNLHIGTARTAVFNWLYARHRGGKFILRIEDTDRERSRPEYTENILEGLQWLGLTWDEGPYFQSDRLDLYRQAIQTLLDKGLAYYCYCTPEELEALRAEQKAKGQAPRYDNRHRHLTPEEQAAFEAAGRTPVIRFKIEDDRQIEWQDLVRGRVSWQGADLGGDMVIARAAPRGEIGYPLYNLVVVVDDIAMGITDVIRGEDHIGNTPKQILLYEALGATPPNFAHTPLILNSTGQKLSKRDGVTSISDFRAMGYLAPALANYMTLLGWSPPEGVGELFTLDLAAKHFSFERINKAGARFDWDKLNWLNRQYIQQLEPEEFLAELIPLWQGAGYAFDEERDRPWLFDLAQLLQPGLNTLREAIDQGAVFFIPSVTFDSEAMAQLGQPQSATILAYLLEHLPAEPALTVAMGQQLIQQAAKAAGVKKGATMRTLRAALTGAVHGPDLMAAWQILHQRGWDEPRLAAALKQAQTTSLEHHHHHH | soluble |
